Consider 48 sequences from patent US20090018093.

Like-named read-outs stand apart in the source and are kept apart here.

The test system of this series is Immunoglobulin E (IgE) (Homo sapiens), P01854-1. The experiment in a line: filter.
Sequence of Immunoglobulin E (IgE) (Homo sapiens), P01854-1 (P01854 other isoform, or with tags, fused parts or gaps): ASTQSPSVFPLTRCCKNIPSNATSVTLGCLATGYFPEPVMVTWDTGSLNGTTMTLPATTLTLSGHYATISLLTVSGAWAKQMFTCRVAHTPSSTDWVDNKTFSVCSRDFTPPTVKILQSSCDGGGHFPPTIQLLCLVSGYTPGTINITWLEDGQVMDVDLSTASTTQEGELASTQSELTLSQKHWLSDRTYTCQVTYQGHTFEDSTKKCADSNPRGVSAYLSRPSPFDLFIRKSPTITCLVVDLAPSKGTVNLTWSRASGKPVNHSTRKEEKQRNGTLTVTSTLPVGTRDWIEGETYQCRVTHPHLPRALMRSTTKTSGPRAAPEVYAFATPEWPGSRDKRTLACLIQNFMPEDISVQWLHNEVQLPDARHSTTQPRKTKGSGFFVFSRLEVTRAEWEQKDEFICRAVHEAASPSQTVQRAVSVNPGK

Broadly, the Kd is the constant that tells how readily two partners part at equilibrium. Sequence “GGGGCTACTTTATCCGTTCCTCCTAGTGGGTAGCCCC [ARC1400]” yielded a Kd (2'-OMe at 1-4,7,33-37, PS 17-18, 3' idT [2'-OMe at 1-4,7,33-37, PS linkage 17-18 (internal N = PS, not a base), 3' inverted dT cap (terminal N, left out)], DPBS Mg/Ca, BSA) of 2.4 nM.

Consider “ANGCCUGGGNGACCCAUNNNGNNGNNGCUN [ARC2969]”, for which, for the setting “ARC1666 chemistry + PS 1-2, 3' idT, DPBS Mg/Ca, BSA, RT”, the Kd stood at 0.09 nM.

Take “GGGAAAAGCGAAUCAUACACAAGACGUGAGCAUAUCAUUGAGUGUAGUGGUUCCGGAGUAAGUCGCUCCGCCAGAGACCAACCGAGAA [rRfY clone SEQ 15]”: under “2'-F C and U, biphasic, KD2 19.0 nM, 1xSHMCK + tRNA, RT”, the dissociation constant (Kd) was found to be 0.115 nM.

Consider AGCCUGGGGACCCAUGGGGGGCU [ARC1264], for which, under “2'-OMe A1,G2,G20,G21 and all C,U, rest 2'-deoxy as printed, 3' idT [2'-OMe A1,G2,C3,C4,U5,C11,C12,C13,U15,G20,G21,C22,U23, rest 2'-deoxy, 3' inverted dT at 24], DPBS Mg/Ca, 0.1 mg/mL BSA, RT”, the Kd amounted to 47 nM.

“GGGGCTACTTTATCCGTTCCTCCTAGTGGGTAGCCCCT [ARC1271]” gave a Kd (2'-OMe at 7, 3' idT [7 (2'-OMe A), 38 (3' inverted dT)], DPBS Mg/Ca, BSA) of 0.2 nM.

For “GGGGCTACTTTATCCGTTCCTCCTAGTGGGTAGCCCC [ARC1397]”, where the note is “2'-OMe at 1-4,7,33-37, PS 14-15, 3' idT [2'-OMe at 1-4,7,33-37, PS linkage 14-15 (internal N = PS, not a base), 3' inverted dT cap (terminal N, left out)], DPBS Mg/Ca, BSA”, the Kd amounted to 1.8 nM.

Turning to “GGGGCTACTTTATCCGTTCCTCCTAGTGGGTAGCCCCT [ARC1266]”, the Kd (2'-OMe at 2, 3' idT [2 (2'-OMe G), 38 (3' inverted dT)], DPBS Mg/Ca, BSA) is 0.2 nM.

“GGGGCTACTTTAUCCGTTCCTCCTAGTGGGTAGCCCC [ARC1277]”: the Kd (DNA with 2'-OMe U13, 3' idT [2'-OMe U13, 3' inverted dT38], dPBS Ca/Mg + BSA) worked out at 6 nM.

With “GGGAGAGGAGAGAACGUUCUACAGGCAGUUCUGGGGACCCAUGGGGGAAGUGCGCUGUCGAUCGAUCGAUCGAUG [ARC1991]”, the Kd (dRmY: 2'-deoxy A,G, 2'-OMe C,U, error 2, dPBS Ca/Mg + 0.1 mg/mL BSA, RT, 87.7 nM with 1 mg/mL tRNA + ssDNA competitor (p280)) was 2 nM.

Regarding AGGCUGGGGACCCAUGGGGGCCU [ARC1244], the Kd (dRmY, dPBS Ca/Mg + BSA, RT) was 450 nM.

In turn, “GGGGCTACTTGATCCGTCCCTCCTAGTGGGTAGCCCC [ARC477]” had a Kd of 0.6 nM.

For the sequence “GGAAUCAUACACAAGACGUCAGUAAGAUUGAGUGUAUGGUUCC [rRfY minimer SEQ 95]”, the Kd (2'-F C and U, KD2 117.2 nM, 1xSHMCK + tRNA) came to 4.5 nM.

“GGGGCTACTTTATCCGTTCCTCCTAGTGGGTAGCCCC [ARC1396]”: the Kd (2'-OMe at 1-4,7,33-37, PS 13-14, 3' idT [2'-OMe at 1-4,7,33-37, PS linkage 13-14 (internal N = PS, not a base), 3' inverted dT cap (terminal N, left out)], DPBS Mg/Ca, BSA) was 2 nM.

“GGGGTATGTTGATCCGTCCCTCCTAGTGGCATGCCCC [DNA clone SEQ 133]” returned a Kd of 0.7 nM.

With AGCCUGGGNGACCCAUNNNGNNGNNGCUN [ARC3265], where the note is “ARC1666 chemistry with 2'-OMe G8,G9, 3' idT, DPBS Mg/Ca, BSA, RT”, the Kd was found to be 0.29 nM.

On to “AGCCUGGGNGACCCAUNNNGNNGNNNGCUN [ARC2983]”, for which, for the setting “ARC1666 chemistry + PS 19-20, 3' idT, DPBS Mg/Ca, BSA, RT”, the Kd is 0.02 nM.

Sequence “GGGCTACTTTATCCGTTCCTCCTAGTGGGTAGCCCT [ARC1306]” came in with a Kd (2'-OMe stem block as printed in Table 18, 3' idT [2'-OMe: stem block (exact positions not given in the material), 36 = 3' inverted dT], DPBS Mg/Ca, BSA) of 14 nM.

As for “GGGGCTACTTTATCCGTTCCTCCTAGTGGGTAGCCCCN [ARC1294]”, the Kd (2'-OMe at 30, 3' idT, DPBS Mg/Ca, BSA) worked out at 8 nM.

Where the note is “2'-OMe C,U, 2'-OH A,G, DPBS, 0.1 mg/mL tRNA, RT”, “GGGAGAGGAGAGAACGUUCUACGAUCUGGGCGAGCCAGUCUGACUGAGGAAGCGCUGUCGAUCGAUCGAUCGAUGAAGGGCG [rRmY clone SEQ 56]” displayed a Kd of 500 nM.

As for “AGCCUNGGGNGACCCAUNNNGNNGNNGCUN [ARC2973]”, the Kd (ARC1666 chemistry + PS 5-6, 3' idT, DPBS Mg/Ca, BSA, RT) was determined as 0.05 nM.

Consider “GGGGCTACTUTATCCGTTCCTCCTAGTGGGTAGCCCC [ARC1274]”, for which the Kd (2'-OMe U at 10, 3' idT [10 (2'-OMe U), 38 (3' inverted dT)], DPBS Mg/Ca, BSA) was found to be 2 nM.

Under “2'-OMe at 1-4,7,33-37, PS 23-24, 3' idT [2'-OMe at 1-4,7,33-37, PS 23-24, 3' idT cap after 37 (left out)], DPBS Mg/Ca, BSA”, “GGGGCTACTTTATCCGTTCCTCCTAGTGGGTAGCCCC [ARC1406]” gave a Kd of 3.2 nM.

“GGGGCTACTTTATCCGTTCCTCCTAGTGGGTAGCCCCT [ARC1267]” displayed a Kd (2'-OMe at 3, 3' idT [3 (2'-OMe G), 38 (3' inverted dT)], DPBS Mg/Ca, BSA) of 0.1 nM.

In the case of AGCCUGGGGACCCAUGGGGGGCU [ARC1254], under “2'-OMe C,U and G8, other A,G deoxy, 3' idT [2'-OMe: 3,4,5,8,11,12,13,15,22,23, 2'-deoxy: 1,2,6,7,9,10,14,16,17,18,19,20,21, 24 = 3' inverted dT], dPBS Ca/Mg + BSA, RT”, the Kd turned out to be 24 nM.

For “GGGGCTACTTTATCCGTTCCTCCTAGTGGGTAGCCCCT [ARC1302]”, for the setting “DNA with 2'-OMe G1-G4,A7,G30,A32,G33, 3' idT [2'-OMe G1-G4, A7, G30, A32, G33, 3' inverted dT at 38], dPBS Ca/Mg + BSA”, the dissociation constant Kd was 19 nM.

Under “2'-OMe at 32, 3' idT, DPBS Mg/Ca, BSA”, “GGGGCTACTTTATCCGTTCCTCCTAGTGGGTAGCCCCN [ARC1296]” came in with a Kd of 1.2 nM.

Regarding AGCCUGGGGACCCAUGGGGGGCU [ARC1548], under “ARC1335 chemistry with dI2, 3' idT [2=dI (G parent), 24=3' inverted dT], DPBS Mg/Ca, 0.1 mg/mL BSA, RT”, the Kd was 3.3 nM.

On to “GGGGCTACTTTATCCGTTCCTCCTAGTGGGTAGCCCCN [ARC1283]”, for which the Kd (2'-OMe at 19, 3' idT, DPBS Mg/Ca, BSA) came out at 0.6 nM.

Sequence “GGGGCTACTTTATCCGTTCCTCCTAGTGGGTAGCCCCT [ARC1279]” displayed a Kd (2'-OMe at 15, 3' idT [15 (2'-OMe C), 38 (3' inverted dT)], DPBS Mg/Ca, BSA) of 0.8 nM.

For “AGCCUGGGNGACNCCAUNNNGNNGNNGCUN [ARC2978]”, the Kd (ARC1666 chemistry + PS 11-12, 3' idT, DPBS Mg/Ca, BSA, RT) is 0.05 nM.

Consider AGCCUGGGGACCCAUGGGGGGCU [ARC1567], for which, where the note is “ARC1335 pattern with dI21, 3' idT [dI21 (inosine, parent base G), 3' inverted dT24, rest ARC1335 pattern], dPBS Ca/Mg + BSA, RT”, the Kd turned out to be 3.5 nM.

Turning to “GGGGCTACTTTATCCGTTCCTCCTAGTGGGTAGCCCCT [ARC1268]”, the Kd (2'-OMe at 4, 3' idT [4 (2'-OMe G), 38 (3' inverted dT)], DPBS Mg/Ca, BSA) amounted to 0.2 nM.

AGCCUGGGGACCCAUGGGGGGCU [ARC1253]: the Kd (2'-OMe C,U and G7, other A,G deoxy, 3' idT [2'-OMe: 3,4,5,7,11,12,13,15,22,23, 2'-deoxy: 1,2,6,8,9,10,14,16,17,18,19,20,21, 24 = 3' inverted dT], dPBS Ca/Mg + BSA, RT) was 2 nM.

In the case of “GGGGCTACTTTATCCGTTCCTCCTAGTGGGTAGCCCC [ARC1412]”, under “2'-OMe at 1-4,7,33-37, PS 29-30, 3' idT [2'-OMe at 1-4,7,33-37, PS 29-30, 3' idT cap after 37 (left out)], DPBS Mg/Ca, BSA”, the Kd came out at 2.5 nM.

For the sequence “GGGGCAGCTTTATCCGTTCCTCCTAGTGGGCTGCCTC [DNA clone SEQ 131]”, the Kd was determined as 0.3 nM.

Consider “GCGGGCAAATTCATCCGTCCCTCCTAGTGGTTTGCCC [DNA clone SEQ 147]”, for which the Kd is 0.5 nM.

Turning to “GGGAGAGGAGAGAACGUUCUACGAGCAGCCCUGGGGCCCGGAGGGGGAUGGUCGCUGUCGAUCGAUCGAUCGAUG [ARC1993]”, the Kd (dRmY: 2'-deoxy A,G, 2'-OMe C,U, error 4, dPBS Ca/Mg + BSA, RT) stood at 9 nM.

As for “AGCCUGGGNGACCCAUNNNGNNNGNNGCUN [ARC2982]”, the Kd (ARC1666 chemistry + PS 17-18, 3' idT, DPBS Mg/Ca, BSA, RT) came to 0.03 nM.

Turning to “GGGCTACTTTATCCGTCCCTCCTAGTGGGTAGCCCC [DNA clone SEQ 140]”, the Kd came out at 0.2 nM.

Take “GGGGCTACTTTATCCGTTCCTCCTAGTGGGTAGCCCC [ARC1405]”: the Kd (2'-OMe at 1-4,7,33-37, PS 22-23, 3' idT [2'-OMe at 1-4,7,33-37, PS 22-23, 3' idT cap after 37 (left out)], DPBS Mg/Ca, BSA) came to 2.5 nM.

For the setting “ARC2342 chemistry with 2'-OMe I16, 3' idT, DPBS Mg/Ca, BSA, RT”, “AGCCUGGGNGACCCAUNNNGNNGNNGNCNUNN [ARC3271]” returned a Kd of 0.23 nM.

Consider “GGAAUCAUACACAAGACGUCGCCAGAUUGAGUGUCGUGGUU [rRfY minimer SEQ 92]”, for which the Kd (2'-F C and U, KD2 22.0 nM, 1xSHMCK + tRNA) was found to be 0.25 nM.

Turning to “AGCCUGGGNGACCCNAUNNNGNNGNNGCUN [ARC2980]”, the Kd (ARC1666 chemistry + PS 13-14, 3' idT, DPBS Mg/Ca, BSA, RT) was found to be 0.04 nM.

In the case of “GGGGCTACTTTATCCGTTCCTCCTAGTGGGTAGCCCC [ARC1401]”, under “2'-OMe at 1-4,7,33-37, PS 18-19, 3' idT [2'-OMe at 1-4,7,33-37, PS linkage 18-19 (internal N = PS, not a base), 3' inverted dT cap (terminal N, left out)], DPBS Mg/Ca, BSA”, the Kd turned out to be 2 nM.

As to AGCCUGGGGACCCAUGGGGGGCU [ARC3266], the Kd (ARC1666 pattern with 2'-OMe G8 and 2'-OMe I16, 3' idT [inosine (written G) at 16 (2'-OMe I),18,20 (dI), 2'-OMe 1-5,7,8,10-17,22,23, deoxy 6,9,18-21, PS 8/9,15/16,16/17,18/19,20/21, 3' inverted dT left out], dPBS Ca/Mg + BSA, RT) turned out to be 1.3 nM.

Turning to AGCCUGGGGACCCAUGGGGGGCU [ARC1563], the Kd (ARC1335 chemistry with dI17, 3' idT [17=dI (G parent), 24=3' inverted dT], DPBS Mg/Ca, 0.1 mg/mL BSA, RT) worked out at 2.2 nM.

For “GGGGCTACTTCATCCGTCCCTCCTAGTGGGTAGCCCC [ARC478]”, the Kd came to 0.4 nM.

Where the note is “2'-OMe U at 6, 3' idT [6 (2'-OMe U), 38 (3' inverted dT)], DPBS Mg/Ca, BSA”, “GGGGCUACTTTATCCGTTCCTCCTAGTGGGTAGCCCC [ARC1270]” gave a Kd of 0.2 nM.
